Data: patent publication US20220195407, “OPTIMIZATION OF ENGINEERED MEGANUCLEASES FOR RECOGNITION SEQUENCES” (Precision BioSciences, Inc., published 2022)
Residue numbers refer to the chain shown, from its start.

Tests used:
Experiment in all cases: cell_activity; CHO iGFFP reporter
LOX 3-4 M.39 = target: T1, LOX 3-4 M.39 (artificial (I-CreI derived))
T1 chain: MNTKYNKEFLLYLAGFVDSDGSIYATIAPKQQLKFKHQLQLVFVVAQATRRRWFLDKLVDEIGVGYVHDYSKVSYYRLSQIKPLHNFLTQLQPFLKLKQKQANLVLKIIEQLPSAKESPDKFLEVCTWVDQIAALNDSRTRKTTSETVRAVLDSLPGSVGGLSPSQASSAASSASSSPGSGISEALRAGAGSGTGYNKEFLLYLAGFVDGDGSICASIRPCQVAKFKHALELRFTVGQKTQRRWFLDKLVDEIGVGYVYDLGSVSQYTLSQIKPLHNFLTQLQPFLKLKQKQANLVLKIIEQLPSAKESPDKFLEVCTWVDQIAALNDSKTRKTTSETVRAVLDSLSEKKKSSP
Description: (§1) A CHO cell reporter system (see WO/2012/167192, FIG. 3) was used to determine whether the engineered meganucleases generated in these studies could recognize and cleave the modified LOX 3-4 recognition sequences in Table 87. To perform the assay, a pair of CHO cell reporter lines were produced, which carried a non-functional Green Fluorescent Protein (GFP) gene expression cassette integrated into the genome of the cell. The GFP gene in each cell line was interrupted by a pair of recognition sequences such that intracellular cleavage of either recognition sequence by a meganuclease would stimulate a homologous recombination event resulting in a functional GFP gene. In both cell lines, one of the recognition sequences was derived from the LOX 3-4 recognition sequence (i.e., those sequences disclosed in Table 87), and the second recognition sequence was specifically recognized by a control meganuclease called “CHO 23/24.” CHO reporter cells comprising a recognition sequence derived from the LOX 3-4 recognition sequence and the CHO 23/24 recognition sequence are referred to herein as “test cells.”
(§2) Novel engineered meganucleases derived from the LOX 3-4x.109 meganuclease were prepared by making amino acid substitutions at one or more positions in the first subunit. These engineered meganucleases were then evaluated for cleavage of the LOX 3-4 recognition sequence modified to have a GTGA center sequence (SEQ ID NO: 434) in the CHO reporter assay according to Example 1. Novel meganucleases which were modified to comprise the residues recited in the tables below were capable of cleaving the LOX 3-4 recognition sequence having a GTGA four base pair center sequence.

LOX 3-4 M.36 = target: T2, LOX 3-4 M.36 (artificial (I-CreI derived))
T2 chain: T1 chain with S19A, A48K, S71R, K72H, S74T
Description: as §1, §2

LOX 3-4 M.47 = target: T3, LOX 3-4 M.47 (artificial (I-CreI derived))
T3 chain: T1 chain with S19A, A48R, S71G, K72S, Q80E, R139K
Description: as §1, §2

LOX 3-4 m.149 = target: T4, LOX 3-4 m.149 (artificial (I-CreI derived))
T4 chain: T1 chain with R50K, S71G, K72R, V73A
Description: as §1
as §2, with “GTAT” for “GTGA”, “400)” for “434)”

LOX 3-4 m.140 = target: T5, LOX 3-4 m.140 (artificial (I-CreI derived))
T5 chain: T1 chain with S71G, K72R, V73A
Description: as §1
as §2, with “GTAT” for “GTGA”, “400)” for “434)”

LOX 3-4 m.152 = target: T6, LOX 3-4 m.152 (artificial (I-CreI derived))
T6 chain: T1 chain with S71N, K72R, V73A, S74A, R139K
Description: as §1
as §2, with “GTAT” for “GTGA”, “400)” for “434)”

LOX 3-4 m.111 = target: T7, LOX 3-4 m.111 (artificial (I-CreI derived))
T7 chain: T1 chain with S19A, A48K, K72N, V73R, R139K
Description: as §1
as §2, with “GTAG” for “GTGA”, “390)” for “434)”

LOX 3-4 m.108 = target: T8, LOX 3-4 m.108 (artificial (I-CreI derived))
T8 chain: T1 chain with S19A, A48K, K72G, V73R, R139K
Description: as §1
as §2, with “GTAG” for “GTGA”, “390)” for “434)”

LOX 3-4 m.97 = target: T9, LOX 3-4 m.97 (artificial (I-CreI derived))
T9 chain: T1 chain with S19A, A48K, K72G, V73R, R139K
Description: as §1
as §2, with “GTAG” for “GTGA”, “390)” for “434)”

B1: LOX 3-4 GTGA (dsDNA)
DNA 1: GTATAGCATGTGATATACGAAG
DNA 2: CTTCGTATATCACATGCTATAC
B1 was tested, and the activity (LOX 3-4 M.39) was 8.66 % GFP, the activity (LOX 3-4 M.36) was 2.75 % GFP and the activity (LOX 3-4 M.47) was 10.1 % GFP.

B2: LOX 3-4 GTAT (dsDNA)
DNA 1: GTATAGCATGTATTATACGAAG
DNA 2: CTTCGTATAATACATGCTATAC
In the case of B2, the activity (LOX 3-4 m.149) is reported as 12.9 % GFP, the activity (LOX 3-4 m.140) is reported as 13.1 % GFP and the activity (LOX 3-4 m.152) is reported as 4.43 % GFP.

B3: LOX 3-4 GTAG (dsDNA)
DNA 1: GTATAGCATGTAGTATACGAAG
DNA 2: CTTCGTATACTACATGCTATAC
With B3 the activity (LOX 3-4 m.111) was 17 % GFP, the activity (LOX 3-4 m.108) was 19.7 % GFP and the activity (LOX 3-4 m.97) was 17.2 % GFP.
